From publication PMC4838890, “Dynamic and flexible H3K9me3 bridging via HP1β dimerization establishes a plastic state of condensed chromatin” (Nature Communications, 2016)
Read-outs that look alike come from different tables or passages of the source.

How the values were obtained:
[1] = tested on: chromatin reporter array in U2OS cells; test: Chromatin reporter array (LacO) unfolding; format: cell-based; details: doxycycline 1 μg ml^−1 24 h, LacI-tethered, n>300
From the text: Figure 7 hHP1β dimerization is required for maintaining condensed cellular chromatin states. (a) Schematic diagram of the transgene system used to test chromatin compaction effects of hHP1β. A tandem array of the construct has been integrated into the genome of U2OS mammalian cells. Dox, doxycycline; rtTA, reverse tetracycline-controlled TET-VP16 transactivator, whose binding to tetracycline responsive elements (RE) is activated by doxycycline. (b) Together with mCherry-LacI, the indicated fusion proteins were transiently expressed in U2OS cells containing the chromatin reporter array as described in a. Representative confocal images in the absence or after induction of transcription from the array with doxycycline (Dox) are shown. DNA was stained with DAPI. Inlets show enlarged chromatin reporter array; scale bar, 10 μm. (c) Quantification of the results shown in b together with results of similar experiments using additional hHP1β mutant proteins. Averages of three independent experiments are plotted; error bars represent s.d.; n>300 for each condition; asterisks represent P<0.05 according to Student's t-test.
U2OS 2-6-3 CLTon cells[38] were kindly provided by Dr Supriya Prasanth (University of Illinois, IL, USA) and maintained in DMEM (high glucose+GlutaMax) (GIBCO/Invitrogen, Darmstadt, Germany) supplemented with 10% (v/v) TET system approved fetal bovine serum (Clontech, Saint-Germain-en-Laye, France), 50 μg ml^−1 hygromycin (Carl Roth, Karlsruhe, Germany) and 200 μg ml^−1 G418 (Clontech, Saint-Germain-en-Laye, France). For fluorescence microscopy, cells were grown on coverslips in a six-well plate without antibiotics. 500 ng plasmid DNA was transfected using Lipofectamine LTX and Plus reagent (Invitrogen, Darmstadt, Germany). 20 h post transfection, cells were treated with 1 μg ml^−1 doxycycline for 24 h for induction of rtTA expression. Cells were washed twice with PBS and fixed with 3.7% (v/v) formaldehyde/PBS for 10 min at RT. […] P values (according to Student's t-test) were calculated using GraphPad QuickCals (GraphPad, CA, USA).

H3K9me3 peptide = target: T1, H3K9me3 peptide (Homo sapiens, UniProt P68431); test: SPR, immobilized H3K9me3 peptide; format: binding; details: for association kinetics: H3K9me3 surfaces of different density; for dissociation (release from matrix): more pronounced at higher H3K9me3 surface densities
T1 construct: C-terminally biotinylated histone H3 peptides (aa 1–20)
Experimental: SPR measurements were performed on a Biacore 2000 instrument (GE Healthcare, Buckinghamshire, UK) at 298 K in 10 mM triethanolamine (pH 7.5), 150 mM NaCl, 0.1 mM EDTA, 1 mM DTT, 0.005% (v/v) Tween-20. Biotinylated ligands were immobilized on streptavidin-coated sensor chips SA (GE Healthcare, Buckinghamshire, UK). Before immobilization, sensor chips were conditioned as described by the manufacturer. To obtain low surface densities (5–24 RU), 5 nM biotinylated H3 peptide was injected at a low rate of 10 μl min^−1 using varying contact times. High surface densities (>700 RU) were prepared by injecting […] peptide (10 μl min^−1) until the SA surface was saturated. Peptide-containing chips were regenerated by applying three short pulses of 0.05% (w/v) SDS followed by an injection of 1.5 M NaCl for baseline stabilization. For binding assays, hHP1β proteins were injected at […] (serial twofold dilutions) for 2 min (30 μl/min). Dissociation was recorded for up to 5 min. A streptavidin surface without ligands served as reference. In addition, blank runs were performed for double referencing. Data evaluation was performed by steady-state analysis assuming a Langmuir 1:1 binding model using BIAevaluation 4.1 and Prism 5.04 (GraphPad, CA, USA) software. Binding to the unmodified peptides was analysed with maximum binding (RUmax) set to the corresponding values obtained with the modified peptides.
Figure S8 Hiragami-Hamada et al.
20 30 one site-specific 20 30 one site-specific […]
time [s] concentration [ μM] time [s] concentration [ μM]
40 two site-specific 40 one site-specific […]
time [s] concentration [ μM]
Supplementary Figure 8: hHP1β binds nucleosomes as dimer.
(a) Dynamic light scattering (DLS) analysis of recombinant hHP1β WT (blue) and I161A (red).
(b) SPR response traces of injection of hHP1β WT into Biacore cells containing biotinylated H3K9me3-peptide immobilized on a sensory chip via covalently coated streptavidin. Immobilized peptide was at 24
RU. Injection series are from 0.024 to 50 µM protein concentration.
(c) Blot of signal over concentration of the titration in (b) to deduce an apparent Kd value. Best fitting was achieved by one site-specific binding model.
(d ) Same analysis as in (b) but with hHP1β I161A.
(e) Blot of signal over concentration of the titration in (d) to deduce an apparent Kd value. […]
(also on this page, place not known: dimer . hHP1 β H3K9me3 - se nsory ( b) site -specific ( b) hHP1 β ( d) site -specific hHP1 β modifi ed H3K9me3 -mononucleosomes H3 -tails -30 -50 -8 -4 200 -10 110 -50 -10 -30 [μM] [μM] -10 190 150 -10 110 200 -10 110 μl/min μl/min μl/min -50 150 response [RU] response [RU] response [RU] response [RU] response [RU] [μM] 10 50 response [RU]40 0 0 [μM] 10 30 50 response [RU] 40 0 0 40 [μM] 10 30 50 response [RU] 140 40 0 120 0 40 response [RU] response [RU] response [RU] Kd Kd μM Kd μM 0.8 0.6 0.4 0.2 0 1 1.0 0.8 0.6 0.4 0.2 0.0 mass fraction)

[2] = SPR titration 0.024 to 50 µM, peptide at 24 RU, one site-specific binding model, read-out: apparent Kd (Supplementary Fig. 8c,e)
[3] = SPR, 150 mM NaCl, pH 7.5, 298 K, steady-state, WT value based on fitting to a one site-specific binding model, read-out: Kd (apparent dissociation constant)

Row | Substance | unfolding of the array on activation [1] | stronger binding to the H3K9me3 matrix compared with the I161A protein (H3K9me3 peptide; SPR titration) | Kd (H3K9me3 peptide; [2]) | Kd (H3K9me3 peptide; [3]) | binding mode (H3K9me3 peptide; SPR, H3K9me3 peptide and mononucleosome surfaces) | association kinetics (H3K9me3 peptide; SPR) | dissociation (release from matrix) (H3K9me3 peptide; SPR)
1 | hHP1β WT: recombinant human heterochromatin protein 1β (GenBank NM_001127228), 185 aa | largely reduced | 10 fold | 0.73 µM | 0.7 ± 0.1 µM | fully consistent with a bivalent interaction mode | very fast association kinetics | released more slowly
2 | hHP1β I161A: CSD point mutant of hHP1β incapable of dimerization | largely reduced by tethering of LacI-YFP-hHP1β WT but not the dimerization deficient I161A mutant | – | 7.5 µM | 7 ± 0.4 µM | – | very fast association kinetics | dissociated rapidly from the H3K9me3 ligand
